Laboratory results: paper PMC3324563 (Biochemistry, 2012)
Values joined by “and” are separate entries in the source; they are usually repeats but may differ in a detail not shown here. Identical values can stand only once. Blank lines part the entries; values can stand above or below the molecule they belong to.

B1: Methanocaldococcus jannaschii prolyl-tRNA synthetase (ProRS) (enzyme, UniProt Q58635 1-455, looked up)
chain: MEFSEWYSDILEKAEIYDVRYPIKGCGVYLPYGFKIRRYTFEIIRNLLDESGHDEALFPMLIPEDLLAKEAEHIKGFEDEVYWVTHGGKTQLDVKLALRPTSETPIYYMMKLWVKVHTDLPIKIYQIVNTFRYETKHTRPLIRLREIMTFKEAHTAHSTKEEAENQVKEAISIYKKFFDTLGIPYLISKRPEWDKFPGAEYTMAFDTIFPDGRTMQIATVHNLGQNFSKTFEIIFETPTGDKDYAYQTCYGISDRVIASIIAIHGDEKGLILPPIVAPIQVVIVPLIFKGKEDIVMEKAKEIYEKLKGKFRVHIDDRDIRPGRKFNDWEIKGVPLRIEVGPKDIENKKITLFRRDTMEKFQVDETQLMEVVEKTLNNIMENIKNRAWEKFENFITILEDINPDEIKNILSEKRGVILVPFKEEIYNEELEEKVEATILGETEYKGNKYIAIAKTY

Legend:
[1] = target: Alexa Fluor 488-labeled Methanocaldococcus jannaschii ProRS (Methanocaldococcus jannaschii) (UniProt Q58635); experiment: fluorescence polarisation
[2] = target: Methanocaldococcus jannaschii HmdIII (Methanocaldococcus jannaschii JAL-1); experiment: SEC-MALS
SEC-MALS = target: the molecule itself; experiment: SEC-MALS
[3] = target: B1; experiment: fluorescence polarisation

Molecule: B1
stoichiometry N (SEC-MALS): 2

B3: Methanocaldococcus jannaschii H2-forming N5,N10-methylene-H4MPT dehydrogenase (Hmd) (enzyme, Methanocaldococcus jannaschii JAL-1, UniProt Q58194 1-358, looked up)
chain: MKIAILGAGCYRTHAAAGITNFMRACEVAKEVGKPEIALTHSSITYGAELLHLVPDVKEVIVSDPCFAEEPGLVVIDEFDPKEVMEAHLSGNPESIMPKIREVVKAKAKELPKPPKACIHLVHPEDVGLKVTSDDREAVEGADIVITWLPKGNKQPDIIKKFADAIPEGAIVTHACTIPTTKFAKIFKDLGREDLNITSYHPGCVPEMKGQVYIAEGYASEEAVNKLYEIGKIARGKAFKMPANLIGPVCDMCSAVTATVYAGLLAYRDAVTKILGAPADFAQMMADEALTQIHNLMKEKGIANMEEALDPAALLGTADSMCFGPLAEILPTALKVLEKHKVVEEEGKTKCEIMSQKE
stoichiometry N (SEC-MALS): 2

The remaining lines, values ahead:

Kd [1]: 1.89 µM
stoichiometry N [2]: 2 and 4
Molecule: Methanocaldococcus jannaschii HmdIII (natural protein)

binding result [3]: binds
B2: Alexafluor-labeled Methanocaldococcus jannaschii HmdII (natural protein, Methanocaldococcus jannaschii JAL-1, UniProt Q58734 1-353, looked up)
chain: MRNIRKIKVDNMKVSVYGAGNQNLYINKLNLPEKFGGEPPYGGSRMAIEFAEAGHDVVLAEPNKNIMSDDLWKKVEDAGVKVVSDDVEAAKHGEIHVLFTPFGKATFRIAKTIIEHVPENAVICNTCTVSPVVLYYSLEPILRTKRKDVGISSMHPAAVPGTPQHGHYVIGGKTTDGKELATEEQIKKAVELAKSAGKEAYVVPADVSSVVADMGSLVTAVALSGVLDYYTVGRKIINAPKKMIEQQVIMTLQTMASLVETSGIEGMVKALNPELLIRSASSMKLLDRQKDLDAALEILQNLDETLKAEVEKAEIKPTTLVAAQSLVKEIKTLIGGAAAEGAIKRSARKLFEH
modifications: Alexafluor label (AlexaFluor 488), site not stated
